From patent publication US7871610B2, “Antibodies to Tie1 ectodomain” (Dyax Corp., priority 2003, dated 2011)

How the values were obtained:
[1] = target: T1, Tie1-EpoR chimeric receptor (UniProt P14753+P35590); test: Ba/F3 bioassay (Tie1/EpoR chimeric BaF3 cell assay), MTT viability; type: cell-based, human; details: for survival/viability of Tie1-EpoR Ba/F3 cells: antibody alone, no IL-3
T1 construct: the PCR amplified extracellular part of human Tie1 (bp 37-2316 of X60975); expressed in transfected cells
T1 sequence (P35590+P14753 with tags, fused parts or gaps): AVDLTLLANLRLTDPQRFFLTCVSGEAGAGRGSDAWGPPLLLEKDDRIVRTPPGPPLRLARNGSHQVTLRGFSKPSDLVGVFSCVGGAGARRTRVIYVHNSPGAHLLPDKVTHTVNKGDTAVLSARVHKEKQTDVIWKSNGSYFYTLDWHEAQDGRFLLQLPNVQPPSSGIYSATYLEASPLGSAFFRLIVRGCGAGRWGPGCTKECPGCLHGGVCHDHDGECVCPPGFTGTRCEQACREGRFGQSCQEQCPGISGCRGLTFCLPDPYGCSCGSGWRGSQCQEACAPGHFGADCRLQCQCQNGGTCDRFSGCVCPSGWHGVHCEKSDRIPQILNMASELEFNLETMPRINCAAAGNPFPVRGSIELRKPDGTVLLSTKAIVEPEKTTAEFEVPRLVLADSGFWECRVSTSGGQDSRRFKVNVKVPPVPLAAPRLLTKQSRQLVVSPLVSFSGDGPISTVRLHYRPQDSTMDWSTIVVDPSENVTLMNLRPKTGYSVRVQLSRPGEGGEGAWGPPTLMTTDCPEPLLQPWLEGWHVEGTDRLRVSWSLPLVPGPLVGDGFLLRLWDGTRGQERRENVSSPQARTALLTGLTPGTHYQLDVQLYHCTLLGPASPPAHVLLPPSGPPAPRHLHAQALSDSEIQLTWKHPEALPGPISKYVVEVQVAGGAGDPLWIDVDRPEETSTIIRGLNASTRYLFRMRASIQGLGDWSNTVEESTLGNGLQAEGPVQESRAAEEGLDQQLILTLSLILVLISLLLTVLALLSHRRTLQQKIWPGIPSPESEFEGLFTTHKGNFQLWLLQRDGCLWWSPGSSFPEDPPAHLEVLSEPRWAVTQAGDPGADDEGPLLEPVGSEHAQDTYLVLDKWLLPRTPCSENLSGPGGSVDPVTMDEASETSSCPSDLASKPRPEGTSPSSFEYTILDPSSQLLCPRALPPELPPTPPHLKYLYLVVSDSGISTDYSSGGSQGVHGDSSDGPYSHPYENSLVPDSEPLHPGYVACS
Outline: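 Ba/F3 cells expressing human Tie1 extracellular domain fused to mouse EpoR transmembrane/cytoplasmic domains, seeded at 50 000 cells/well with anti-Tie1 antibodies for 48 h. Non-expressing Zeocin-resistant pools served as controls. Survival read by MTT (0.5 mg/ml, 2 h), SDS/HCl lysis overnight at 37 °C, absorbance at 540 nm.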

Tie1 = Tie1 (Homo sapiens, UniProt P35590); test: Confocal microscopy staining of HUVEC; type: binding; set-up: endogenous in cells; host or cells: HUVEC; details: biotinylated antibody 10 μg/ml, fixed cells
Tie1, sequence (P35590 22-1138): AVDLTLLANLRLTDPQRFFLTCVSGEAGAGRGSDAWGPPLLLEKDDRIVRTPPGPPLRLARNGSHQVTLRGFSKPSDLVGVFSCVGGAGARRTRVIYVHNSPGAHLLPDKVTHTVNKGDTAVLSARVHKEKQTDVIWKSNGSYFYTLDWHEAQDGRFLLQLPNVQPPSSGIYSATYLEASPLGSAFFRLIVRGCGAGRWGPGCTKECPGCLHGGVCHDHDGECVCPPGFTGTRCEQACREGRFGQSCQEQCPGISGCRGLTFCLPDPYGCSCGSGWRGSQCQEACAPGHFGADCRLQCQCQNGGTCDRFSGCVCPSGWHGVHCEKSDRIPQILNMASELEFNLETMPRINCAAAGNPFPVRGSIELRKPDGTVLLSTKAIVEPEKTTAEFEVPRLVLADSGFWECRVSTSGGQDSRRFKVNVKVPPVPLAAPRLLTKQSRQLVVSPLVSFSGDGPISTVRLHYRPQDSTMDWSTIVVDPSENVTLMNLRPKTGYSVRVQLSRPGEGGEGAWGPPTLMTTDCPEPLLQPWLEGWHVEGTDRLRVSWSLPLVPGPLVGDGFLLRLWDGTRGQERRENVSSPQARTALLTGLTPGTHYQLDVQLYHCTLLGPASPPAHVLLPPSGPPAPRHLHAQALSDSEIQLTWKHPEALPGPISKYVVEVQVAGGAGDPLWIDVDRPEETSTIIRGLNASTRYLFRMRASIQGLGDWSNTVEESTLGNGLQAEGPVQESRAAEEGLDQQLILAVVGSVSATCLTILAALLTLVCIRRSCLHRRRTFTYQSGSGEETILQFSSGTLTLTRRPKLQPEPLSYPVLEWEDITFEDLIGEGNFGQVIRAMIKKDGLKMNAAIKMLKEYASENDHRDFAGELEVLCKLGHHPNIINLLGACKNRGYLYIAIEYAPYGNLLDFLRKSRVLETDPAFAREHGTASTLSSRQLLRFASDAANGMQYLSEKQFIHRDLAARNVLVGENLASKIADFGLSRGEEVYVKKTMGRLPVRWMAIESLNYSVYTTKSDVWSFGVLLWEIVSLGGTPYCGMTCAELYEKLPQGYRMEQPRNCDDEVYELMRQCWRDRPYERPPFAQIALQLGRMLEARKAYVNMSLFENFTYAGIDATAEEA
Experimental: We analyzed the staining pattern of E3 in HUVECS using confocal microscopy. HUVEC were trypsinised, washed with PBS and spotted at a density of 60 000 cells on a gelatine coated microscope slide and incubated for 24 hours in a humidified incubator at 37° C. Cells were air dried and fixed with 4% paraformaldehyde for 20 minutes at room temperature. The slides were washed with PBS. The slides were incubated with 10% Heat inactivated human serum (incubation buffer).
For measuring specific binding to Tie-1, biotinylated antibody E3 and biotinylated negative control antibody A2 were used at a concentration of 10 μg/ml and incubated for 1 hour at room temperature. Slides were washed twice with PBS. Then, Strepatvidin-R-phycoerythrin (Dako, Glostrup, Denmark) was added and incubated for 1 hour at room temperature. After the last incubation and washing detection of bound antibodies was performed by means of confocal microscopy.

B1: E3: human anti-Tie1 antibody from Fab phage library; HC SEQ ID NO:114, LC SEQ ID NO:116 (antibody, V domains shown)
VH: EVQLLESGGGLVQPGGSLRLSCAASGFTFSMYGMVWVRQAPGKGLEWVSVISPSGGNTGYADSVKGRFTISRDNSKNTLYLQVNSLRAEDTAVYYCARAPRGYSYGYYYWGQGTLVTVSSASTKGPSVFPLAPSSKSTSGG
VL: DIQMTQSPLSLSASVGDRVTITCRASQGIGHYLAWYQQKPGKVPKLLIYTASTLQSGVPSRFSGSGSGTDFTLTINSLQPEDVATYYCQQFNSYPHTFGQGTRLDIK
modifications: Synthetically generated peptide
concentration giving almost maximal viability in Tie1-EpoR cell survival assays ([1]; Tie1-EpoR Ba/F3 cells): 50 ng/mL | Average MTT activity in BaF3 cell assay ([1]; Tie1-EpoR Ba/F3 cells, 48 h, absorbance 540 nm, E3 IgG 100 ng/ml together with 100 or 500 ng/ml of the other antibody): 0.61 | survival/viability of Tie1-EpoR Ba/F3 cells [1]: functions as a Tie1 activating antibody | survival/viability of Tie1-EpoR Ba/F3 cells ([1]; listed as E3 IgG): able to promote survival | viability of EpoR Ba/F3 cells used as a control ([1]; control cells not expressing Tie1-EpoR): not affected | binding to HUVEC by confocal microscopy (Tie1): binds specifically to HUVEC | localisation of staining in HUVEC (Tie1): pre-dominantly located inside of the cell
